The source of these data is article PMC8967717 (Nature, 2022).

The target of assay [1] is SARS-CoV-2 wild-type spike (S) protein (SARS-CoV-2, WT (MN908947), UniProt P0DTC2).
Assay [2] deals with SARS-CoV-2 wild-type spike receptor-binding domain (SARS-CoV-2, WT (MN908947), UniProt P0DTC2).

B1: XGv055 (antibody, V domains shown)
VH: QVQLVQSGAEVKKPGSSVKVSCKASGGTFSSYALSWVRQAPGQGLEWMGGIIPIFGTTNYAQKFQGRVTITADESSSTAYMELSSLRSEDTAVYYCARLDGYSFGHNRYYQDGMDDWGQGTTVTVSS
VL: DIQMTQSPSSLSASVGDRVTITCRASQGIRNDLGWYQQKPGKAPKCLIYAASTLQSGVPSRFSGSGSGTEFTLTISSLQPEDFATYYCLQQNIYPRTFGQGTKVEIK
For B1, the binding result in assay [1] and in assay [2] was “binds” throughout.

B2: XGv074 (antibody, V domains shown)
VH: EVQLVESGGGLIQPGGSLRLSCAASGITVSANYMSWVRQAPGKGLEWVSVIYSGGSTYYADSVKGRFTISRDHSKNTLYLQMKNLRAEDTAVYYCARDRGSSGYLGDQPYEYWGQGTLVTVSS
VL: DIQMTQSPSSLSASVGDRVTITCQASQDINKYLNWYQQKPGKAPKLLIYGASNLETGVPSRFSGSGSGTDFTFTISSLRPEDIATYYCQQYDPLPVTFGGGTRVEIK
As for B2, the binding result in assay [1] and in assay [2] was “binds” throughout.

B3: XGv177 (antibody, V domains shown)
VH: EVQLVESGGGLIQPGGSLRLSCAASGVTVSSNYMTWVRQAPGKGLDWVSVIYSGGSTFYADSVKGRFTISRDNSKNTLYLQMNSLRVEDTAVYYCARDLVDYGLDVWGQGTTVTVSS
VL: DIQLTQSPSFLSASVGDRVTITCRASQGIASYLAWYQQKPGKPPKLLIYAASTLQSGVPTRFSGSGSGTEFTLTITSLQPEDFATYYCQLLSRHPPTFGGGTKVEI
Turning to B3, the binding result in assay [1] and in assay [2] was “binds” each time.

B4: XGv303 (antibody, V domains shown)
VH: EVQLVESGGGLIRPGGSLRLSCAASGITVSSNYMTWVRQAPGKGLEWVSVIYSGGTTFYADSVKGRFTISRDNSKNTLYLQMNSLRAEDTAVYYCARNLVVYGMDVWGQGTTVTVSS
VL: DIQLTQSPSSLSASVGDRVTITCRASQGISSDLAWYQQKPGKAPKLLIYGASTLQGGVPSRFSGSGSGTDFTLTISRLQPEDCAIYYCQQLNSEFLTFGGGTKVEIK
Regarding B4, the binding result in assay [1] and in assay [2] was “binds” in each case.

B5: XGv296 (antibody, V domains shown)
VH: QVQLVQSGAEVKKPGASVKISCKASGYTFTDHYVHWVRQAPGQGLEWMAIVNPSDGSTSYAQKFQGRVTMTSDTSTTTIYMELSSLRSGDTAVYYCARAEGSSWLGWFDPWGQGTQVTVSS
VL: QSVLTQPPSASGTPGQRVTISCSGSSSNIGGHYVYWYQQFPGTAPKLLIYRSNQRPSGVPDRFSGSKSGTSASLAISGLRSEDEADYFCAAWDDGLRGSGWVFGGGTTLTV
Turning to B5, the binding result in assay [1] and in assay [2] was “binds” in each case.

B6: XGv293 (antibody, V domains shown)
VH: QVQLVQSGAEVKKPGASVKVSCKASGYTFTSYFLHWVRQAPGQGLEWLGIIDPSGGASYAQKFQGRVTMTSDTSTSTVYMDLGSLRSEDTAVYYCARAEGTSWLGWFDPWGQGSLVTVSS
VL: QSVLTQPPSASGTPGQRVTISCSGSSSNIGTNYVYWYQQLPGTAPKLLIYRNYQRPSGVPDRFSGSKSGTSASLAISGLRSEDEAEYYCAAWDNGLSGSGWVFGGGTKLTVL
For B6, the binding result in assay [1] and in assay [2] was “binds” throughout.

B7: XGv297 (antibody, V domains shown)
VH: QVQLVQSGAEVKKPGASVKVSCRTSGYTFTAYYIHWVRQVPGQGLEWMGIINPSGGGASYAQTFQGRVSLTRDTSTRTVYMDLSSLISEDTAVYYCARAEGTHWLGWFDPWGQGTLVTVSS
VL: QSVLTQPPSASGTPGQRVTISCSGSSSNIASNSVYWYQQLPGTAPKLLIYRNNQRPSGVPDRFSGSTSGTSASLAISGLRSEDEADYYCAAWDDNLSGSGWVFGGGTKLTVL
For B7, the binding result in assay [1] and in assay [2] was “binds” each time.

B8: XGv295 (antibody, V domains shown)
VH: QVQLVQSGAEVKKPGASVKVSCKASGYIFTNYYIHWVRQAPGQGLEWMAIFNPSAATASYAQKFQGRVTMTRDTSTTTVYMELRSLRFDDTAVYYCARAEGTSWLGWFDPWGQGTLVTVSS
VL: QSVLTQPPSASGTPGQRVTVSCSGSSSNIGSHDVYWYQQLPGTAPKLLIYKNDQRPSGVPDRFSGSTSGTSASLAISGLRSEDEADYYCAAWDDGLSGSGWVFGGGTKLTVL
B8: the binding result in assay [1] and in assay [2] was “binds” each time.

B9: XGv302 (antibody, V domains shown)
VH: EVQLVESGGGLIQPGGSLRLSCAASGITVSSNYMNWVRQAPGKGLEWVSVIYAGGTTFYADSVKGRFTISRDSSKNTLSLQMNSLRVEDTAVYYCVRNLVVYGMDVWGQGTTVTVSS
VL: DIQLTQSPSSLSASVGDRVTITCRASQGISSDLAWYQQKPGKAPKLLIYGASTLQSGVPSRFSGSGSGAHFTLTINSLQPEDFAIYYCQQLNSEFLTFGGGTKVEIK
With B9, the binding result in assay [1] and in assay [2] was “binds” in each case.

B10: XGv285 (antibody, V domains shown)
VH: QVQLVQSGAEVKKPGASMKVSCKASGYTFISYYMHWVRQAPGQELEWMGIINPSGGSTSYAQKFQGRVTMTRDTSTSTVYMELRSLRSEDTAVYYCARAEGSSWLGWFDPWGQGTLVTVSS
VL: QSVLTQPPSASGTPGQRVTISCSGSSSNIGSNLVYWYQHLPGTAPKLLIYKNTQRPSGVPDRFSGSKSGTSASLAISGLRSDDEGDYYCAAWDDGLSGSGWVFGGGTKVT
On to B10, for which the binding result in assay [1] and in assay [2] was “binds” in each case.

B11: XGv294 (antibody, V domains shown)
VH: QVQLVQSGAEVKKPGASVKVSCKASGYTFTRHYIHWVRQAPGQGLEWMGIINPSGGGASYAQKFQGRVTMTRDTSTSTVYMEVSSLRYEDTAVYYCARAEGGSWLGWFDPWGQGTLVTVSS
VL: QSVLTQPPSASGTPGQRVTISCSGGSSNIGNNYVYWYQQLPGTAPKLLIYGNNQRPSGVPDRFSGSKSGTSASLAISGLRSEDEADYHCAAWDDGLSGSGWVFGGGTKLT
In the case of B11, the binding result in assay [1] and in assay [2] was “binds” throughout.

B12: XGv286 (antibody, V domains shown)
VH: QVQLVQSGAEVKKPGASVKVSCKASGYTFSSYYIHWVRQAPGQGPEWMAIINPGDGGASYAQKFQGRVTLTRDTSTSTLYMELSSLRSEDTAVYYCARAEGSSWLGWFDPWGQGTLVTVSS
VL: QSVLTQPPSASGTPGQRVTISCSGSSSNIGSNYVYWYQQLPGTAPKLLIYRNNQRPSGVPDRFSGSRSGTSASLAISGLRSEDEADYYCAAWDDGLSGSGWVFGGGTKLT
In the case of B12, the binding result in assay [1] and in assay [2] was “binds” throughout.

B13: XGv290 (antibody, V domains shown)
VH: QVQLVQSGAEVKKPGASVKVSCKASGYTFKNYHMHWVRQAPGQGLEWMGIINPSGGGSSYAQKFQGRVTMTGDTSTSTVYMELSSLRSEDTAVYYCARAEGSSWLGWFDPWGQGTLVTVSS
VL: QSVLTQPPSASGTPGQRVTISCSGSSSNIGSNYVYWYQQLPGTAPKVLIYRNNQRPSGVPDRFSGSKSGTSASLAISGLRSEDEAEYYCAAWDDGLSGSGWLFGGGTKLT
Turning to B13, the binding result in assay [1] and in assay [2] was “binds” each time.

B14: XGv264 (antibody, V domains shown)
VH: QITLKESGPTLVKPTQTLTLTCAFSGFSLNTGGAGVGWIRQPPGKALEWLALIYWDGDKRYNPSLKSRLAIIMDTSKNRVVLTMTNMDPVDTATYYCAHHKIEYIFDYWGQGTLVAVSS
VL: QSALTQPASVSGSPGQSITVSCTGTSSDLGNFQYVSWYQHHPGKAPKLLIYEVSHRPSGVSNRFSGSKSGNTASLTISGLQAEDEADYYCCSYTTTTIPVAFGGGTRLTVL
Turning to B14, the binding result in assay [1] and in assay [2] was “binds” each time.

B15: XGv261 (antibody, V domains shown)
VH: QLQLQESGPGLVRPSETLSLTCTVSGGSITDSGYYWGWIRQPPGKGLEWIGNIFYSGSTYYNPSLKSRVTISVDTSKNQFSLRLSSVTAADTAVYYCAREIGIIDYWGQGSLVIVSS
VL: DIQMTQSPSSLSASVGDRVTITCRASQGISNSLAWYQQKPGKAPKLLLYGASTLESGVPSRFSGSGSGTHFTLTISSLQPEDFATYFCQQYYSSPPRTFGGGTKVEI
Turning to B15, the binding result in assay [1] and in assay [2] was “binds” throughout.

B16: XGv266 (antibody, V domains shown)
VH: QITLKESGPTLVRPTQTLTLTCTFSGLSLSAPAEGVGWIRQPPGKALEWLALIYWEGDQRYSPSLKSRLTITKDTSKKQVVLTMTNMDPVDTATYYCARHSVATIFDFWGQGTLVTVSS
VL: QSALTQPASVSGSPGQSITISCTGTSSDVGCCNYVSWYQHHPGKAPKLMIYEVTNRPSGISDRFSGSKSGNTASLTISGLQAEDEAAYYCSSYTTSTARVVFGGGTKLTVL
As for B16, the binding result in assay [1] and in assay [2] was “binds” each time.

B17: XGv287 (antibody, V domains shown)
VH: QVQLVQSGAEVKKPGASVKVSCKTSGYTFTTYYMHWVRQAPGQGLEWMGIINPSDGSTNYAQKFQDRVTLTKDTSTSTFYMELSSLTSEDTAKYYCARAEGSSWLGWFDPWGQGTLVTVSS
VL: QSVLTQPPSASGTPGQRVTISCSGSNSNIGNHFVYWYQQLPGKAPKLLIYRNNQRPSGVPDRFSGSKSGTSASLAISGLRSEDEADYYCASWNDGLSASGWVFGGGTKLTV
For B17, the binding result in assay [1] and in assay [2] was “binds” each time.

B18: XGv288 (antibody, V domains shown)
VH: QVQLVQSGAEVKKPGASVKVSCKASGYTFTNYYIHWVRQAPGQGLEWMAIINPSGGGASYAHKFQGRVTMTRDTSTSTLYMELISLRSDDTAVYYCARAEGSSWLGWFDPWGQGTLITVSS
VL: QSVLTQPPSASGTPGQRVTISCSGSSSNIGSNYVYWYQQLPGTAPKLLIYRNAQRPSGVPDRFSGSKSGTSASLAISGLRSEDEADYYCAAWDDGLSGSGWVFGGGTKLTV
On to B18, for which the binding result in assay [1] and in assay [2] was “binds” in each case.

B19: XGv291 (antibody, V domains shown)
VH: QVQLVQSGAEVKKPGASVEISCKASGYSFTKYYVHWVRQAPGQGLEWMGIVNPNGGASYAQKFQGRVTMTSDTSTTTFYMEVSGLRSDDTAVYYCARAEGSSWLGWFDPWGQGTLVTVSS
VL: QSVLTQPPSASGTPGQRVTISCSGSTSNIGSKDVYWYQQLPGTAPKLLIYRNNQRPSGAPDRFSASKSGTSASLAISGLRSEDEADYYCAVWDDGLSASGWLFGGGTKLTV
Consider B19, for which the binding result in assay [1] and in assay [2] was “binds” in each case.
